Results reported in the supplement of paper PMC7877785.
± gives the uncertainty stated by the source.

Test: self-splicing fitness, log relative to wild type (ln ratio); higher = more splicing; Tetrahymena group I intron in knt gene, E. coli kanamycin selection, DiMSum; sequences stand for … in CUCUCU…GGAGGGAAAAGUUAUCAGGCAUGCACCUGGUAGCUAGUCUUUAAACCAAUAGAUUGCAUCGGUUUAAAAGGCAAGACCGUCAAAUUGCGGGAAAGGGGUCAACAGCCGUUCAGUACCAAGUCUCAGGGGAAACUUUGAGAUGGCCUUGCAAAGGGUAUGGUAAUAAGCUGACGGACAUGGUCCUAACCACGCAGCCAAGUCCUAAGUCAACAGAUCUUCUGUUGAUAUGGAUGCAGUUCACAGACUAAAUGUCGGUCGGGGAAGAUGUAUUCUUCUCAUAAGAUAUAGUCGGACCUCUCCUUAAUGGGAGCUAGCGGAUGAAGUGAUGCAACACUGGAGCCGCUGGGAACUAAUUUGUAUGCGAAAGUAUAUUGAUUAGUUUUGGAGUACUCGUGGUCG
Procedure, shortened: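 A randomised library covering all eight P1ex-region intron nucleotides was built with the intron in the knt kanamycin-resistance gene on pET-22b(+) and held in E. coli BL21(DE3). Cells were grown overnight at 37°C or 30°C on LB agar, with or without 25 μg/mL kanamycin, plus 100 μg/mL carbenicillin, 50 μM IPTG and 0.2% rhamnose, and pooled colonies were amplicon-sequenced on an Illumina HiSeq 2500. DiMSum fitness is the error-weighted combination of wild-type-normalised replicate fold changes, kanamycin versus none.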

Sequence	self-splicing fitness (ln) (30 °C)	self-splicing fitness (ln) (37 °C)
ACCUAGCAAUAUUACGGUAU	-3.08 ± 0.14	-1.44 ± 0.11
UCAAAGCAAUAUUACGUGUG	-1.51 ± 0.058	-0.749 ± 0.066
AAUGAGCAAUAUUACGAUAU	-3.25 ± 0.25	-0.861 ± 0.22
CACAAGCAAUAUUACGGCGU	-1.66 ± 0.088	-1.57 ± 0.099
CUUAAGCAAUAUUACGUCAU	-4.2 ± 0.26	-2.84 ± 0.19
GUGUAGCAAUAUUACGGUCA	-1.36 ± 0.14	-2.06 ± 0.12
GCGUAGCAAUAUUACGCCGC	-2.36 ± 0.42	–
CAUUAGCAAUAUUACGAUCU	-2.48 ± 0.2	-3.22 ± 0.47
ACCAAGCAAUAUUACGAAAU	-2.89 ± 0.12	-2.08 ± 0.15
CAGCAGCAAUAUUACGCAAG	-1.53 ± 0.092	-0.332 ± 0.11
UUACAGCAAUAUUACGUUUU	-3.4 ± 0.11	-0.802 ± 0.092
AAUUAGCAAUAUUACGUUUU	-1.98 ± 0.13	-1.21 ± 0.14
CAUUAGCAAUAUUACGGCUU	-4.46 ± 0.39	-1.98 ± 0.33
CAUUAGCAAUAUUACGCAAU	–	-1.54 ± 0.43
CGGAAGCAAUAUUACGGAAA	-1.12 ± 0.21	-2.23 ± 0.29
AGGGAGCAAUAUUACGACAA	-3.29 ± 0.29	-3.44 ± 0.42
CAGCAGCAAUAUUACGACAU	-3.505 ± 0.021	-1.82 ± 0.034
CGUGAGCAAUAUUACGCGAU	-2.75 ± 0.23	-1.35 ± 0.24
GGGUAGCAAUAUUACGACGA	-0.202 ± 0.15	-0.379 ± 0.14
AAUAAGCAAUAUUACGGAGU	-3.06 ± 0.25	-2.13 ± 0.32
UUGAAGCAAUAUUACGGACC	-1.12 ± 0.14	-0.125 ± 0.2
GUCUAGCAAUAUUACGUCUA	-1.33 ± 0.23	-1.22 ± 0.16
CCCCAGCAAUAUUACGUUAC	-4.86 ± 0.46	-2.37 ± 0.28
CAUAAGCAAUAUUACGCCGA	–	-1.71 ± 0.48
UUUUAGCAAUAUUACGGUCA	-1.25 ± 0.17	-0.069 ± 0.13
CGCAAGCAAUAUUACGUAUG	-2.25 ± 0.091	-0.723 ± 0.091

Sequence	self-splicing fitness (ln) (30 °C)	self-splicing fitness (ln) (37 °C)
CUUAAGCAAUAUUACGCGGG	-2.83 ± 0.2	-2.92 ± 0.31
AUCAAGCAAUAUUACGUCUA	-0.821 ± 0.073	-0.438 ± 0.076
CAAUAGCAAUAUUACGGCAC	-3.57 ± 0.2	-3.06 ± 0.28
UUUCAGCAAUAUUACGGAUU	-1.63 ± 0.083	-0.55 ± 0.097
CUGGAGCAAUAUUACGCCAU	–	-2.32 ± 0.34
GUUCAGCAAUAUUACGAUGA	-1.07 ± 0.13	-0.686 ± 0.19
AAAAAGCAAUAUUACGAACG	-0.0786 ± 0.076	-0.303 ± 0.1
CGCCAGCAAUAUUACGGAUU	-3.66 ± 0.19	-0.897 ± 0.097
UGUAAGCAAUAUUACGUAGU	-3.01 ± 0.21	-0.923 ± 0.18
UGUAAGCAAUAUUACGACAG	-1.29 ± 0.11	-0.146 ± 0.13
AUAAAGCAAUAUUACGUGGA	-3.9 ± 0.17	-1.38 ± 0.1
GGGAAGCAAUAUUACGAUGC	0.369 ± 0.12	0.306 ± 0.13
CAAGAGCAAUAUUACGAGGG	-3.17 ± 0.16	-2.75 ± 0.2
CCACAGCAAUAUUACGAGAA	-2.74 ± 0.26	-3.69 ± 0.39
CAUGAGCAAUAUUACGAAUG	-3.67 ± 0.2	-2.33 ± 0.16
GCGCAGCAAUAUUACGCCUC	0.178 ± 0.29	-1.24 ± 0.29
GACAAGCAAUAUUACGUCCA	-2.8 ± 0.14	-1.42 ± 0.13
CCGCAGCAAUAUUACGAUAC	-2.77 ± 0.28	-2.19 ± 0.46
CAAAAGCAAUAUUACGGUAG	-0.372 ± 0.058	-0.148 ± 0.074
GUAUAGCAAUAUUACGUGUC	-4.58 ± 0.39	-1.42 ± 0.14
UUGAAGCAAUAUUACGUCUC	-3.24 ± 0.28	-1.28 ± 0.23
UGGGAGCAAUAUUACGGUGG	-2.67 ± 0.46	–
AAACAGCAAUAUUACGCAGC	-1.83 ± 0.14	-1.98 ± 0.23
AAAAAGCAAUAUUACGUGCG	-0.427 ± 0.052	-0.846 ± 0.064
AUAGAGCAAUAUUACGCAAU	-0.971 ± 0.14	0.283 ± 0.2
CCGGAGCAAUAUUACGCAAA	–	-2.55 ± 0.33

Sequence	self-splicing fitness (ln) (30 °C)	self-splicing fitness (ln) (37 °C)
ACGUAGCAAUAUUACGUCAU	-2.12 ± 0.17	-2.4 ± 0.3
UCAGAGCAAUAUUACGUGGG	-3.2 ± 0.16	-1.96 ± 0.14
UUCCAGCAAUAUUACGAAAG	-2.6 ± 0.27	-2.33 ± 0.27
UCGCAGCAAUAUUACGUUUG	-2.89 ± 0.099	-1.09 ± 0.11
CGGUAGCAAUAUUACGCAUU	–	-2.5 ± 0.24
UCGCAGCAAUAUUACGGACA	-1.38 ± 0.17	-1.83 ± 0.14
CCGGAGCAAUAUUACGAGUA	-3.34 ± 0.27	-2 ± 0.26
UGUUAGCAAUAUUACGGUAC	–	-2.68 ± 0.48
CAUAAGCAAUAUUACGCCAU	-1.36 ± 0.15	-2.6 ± 0.34
CCUCAGCAAUAUUACGCAGG	-3.84 ± 0.25	-2.5 ± 0.3
CCAGAGCAAUAUUACGACUG	-1.05 ± 0.1	-0.605 ± 0.15
UCUCAGCAAUAUUACGAAUG	-1.73 ± 0.15	-1.85 ± 0.26
CUGCAGCAAUAUUACGAGAU	-3.69 ± 0.34	–
CGAAAGCAAUAUUACGCGAC	-2.36 ± 0.19	-3.26 ± 0.25
UGGUAGCAAUAUUACGGAAG	-2.16 ± 0.15	-1.27 ± 0.18
AAGGAGCAAUAUUACGUCAC	–	-1.45 ± 0.46
AUAAAGCAAUAUUACGCCUG	0.243 ± 0.077	-0.132 ± 0.09
GCUCAGCAAUAUUACGCAAG	-2.83 ± 0.42	-1.69 ± 0.23
AGAAAGCAAUAUUACGCCCA	0.247 ± 0.12	0.167 ± 0.2
UCCGAGCAAUAUUACGUAGA	-2.09 ± 0.14	-1.42 ± 0.2
UAAUAGCAAUAUUACGUAUA	-1.82 ± 0.17	-1.17 ± 0.17
CAUUAGCAAUAUUACGUGCG	-0.965 ± 0.074	-0.237 ± 0.082
UGCCAGCAAUAUUACGCAGA	-2.81 ± 0.2	-1.66 ± 0.14
AGAAAGCAAUAUUACGACAA	-0.576 ± 0.087	0.0351 ± 0.089
GUGCAGCAAUAUUACGCCAU	-2.23 ± 0.16	-2.62 ± 0.23
UAGGAGCAAUAUUACGUCAA	–	-2.27 ± 0.46
